Reference: paper doi:10.1101/2025.08.03.668247, “The structure of Egalitarian in complex with the K10 mRNA localization signal reveals a modular binding surface required for function”
Changes are numbered by the printed parent chain.

Experiments:
Assay in all cases: fluorescence anisotropy; FA: 20 mM HEPES-NaOH pH 7.5, 100 mM NaCl, 10% glycerol, 20 C, 10 nM FAM-RNA; competition: 150 nM Egl512-819 + 10 nM FAM-K10 TLS, same buffer
Settings in all cases: protein: recombinant; tags: N-terminal GST; label: 5'-6-FAM; hairpin with two bulges
R785E = biological target: T1, R785E (Drosophila melanogaster, UniProt Q9W1K4 512-819, R785E)
T1 sequence: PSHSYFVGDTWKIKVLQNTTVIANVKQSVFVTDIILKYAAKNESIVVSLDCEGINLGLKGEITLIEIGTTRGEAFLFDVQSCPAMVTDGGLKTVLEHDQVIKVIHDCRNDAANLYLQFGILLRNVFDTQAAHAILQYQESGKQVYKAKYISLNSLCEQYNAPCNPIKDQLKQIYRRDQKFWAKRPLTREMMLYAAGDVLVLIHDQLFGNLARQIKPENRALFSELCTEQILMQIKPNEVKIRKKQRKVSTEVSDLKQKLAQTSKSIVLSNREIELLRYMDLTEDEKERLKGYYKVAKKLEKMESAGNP

K755E = biological target: T2, K755E (Drosophila melanogaster, UniProt Q9W1K4 512-819, K755E)
T2 sequence: T1 sequence with K244E, E274R

R788E = biological target: T3, R788E (Drosophila melanogaster, UniProt Q9W1K4 512-819, R788E)
T3 sequence: T1 sequence with E274R, R277E

R785A = biological target: T4, R785A (Drosophila melanogaster, UniProt Q9W1K4 512-819, R785A)
T4 sequence: T1 sequence with E274A

Egl1-819 = biological target: T5, Egl1-819 (Drosophila melanogaster, UniProt Q9W1K4 1-819)
T5 sequence: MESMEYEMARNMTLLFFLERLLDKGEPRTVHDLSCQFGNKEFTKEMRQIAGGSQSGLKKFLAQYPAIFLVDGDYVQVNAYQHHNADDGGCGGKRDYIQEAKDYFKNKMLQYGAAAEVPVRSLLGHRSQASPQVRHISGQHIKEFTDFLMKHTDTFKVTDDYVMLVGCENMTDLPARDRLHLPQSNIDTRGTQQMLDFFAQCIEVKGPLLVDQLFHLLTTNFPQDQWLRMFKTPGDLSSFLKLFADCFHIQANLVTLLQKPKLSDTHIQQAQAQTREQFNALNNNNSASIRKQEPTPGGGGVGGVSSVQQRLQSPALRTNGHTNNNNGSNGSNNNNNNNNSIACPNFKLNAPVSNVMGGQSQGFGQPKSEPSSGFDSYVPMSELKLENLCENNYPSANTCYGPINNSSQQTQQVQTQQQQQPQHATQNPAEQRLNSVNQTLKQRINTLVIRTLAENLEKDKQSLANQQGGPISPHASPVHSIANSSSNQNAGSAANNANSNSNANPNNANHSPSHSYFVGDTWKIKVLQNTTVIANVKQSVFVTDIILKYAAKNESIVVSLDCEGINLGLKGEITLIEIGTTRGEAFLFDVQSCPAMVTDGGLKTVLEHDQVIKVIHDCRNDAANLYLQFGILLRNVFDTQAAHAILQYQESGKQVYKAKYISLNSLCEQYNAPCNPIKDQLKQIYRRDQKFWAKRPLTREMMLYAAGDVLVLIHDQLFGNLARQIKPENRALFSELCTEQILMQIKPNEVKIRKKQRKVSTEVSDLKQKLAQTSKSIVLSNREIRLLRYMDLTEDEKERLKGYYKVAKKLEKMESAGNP

B1: K10 TLS (FAM) (structured_RNA)
RNA: CUUGAUUGUAUUUUUAAAUUAAUUCUUAAAAACUACAAAUUAAG
Question: For B1, which Kd (R785E) is on record?
Answer: 210 ± 5 nM

Question: What about the Kd (K755E) of the same binder?
Answer: 133 ± 2 nM

Question: What about the Kd (R788E) of the same binder?
Answer: 313 ± 23 nM

Question: And the Kd (R785A)?
Answer: 194 ± 10 nM

Question: What about the Kd (Egl1-819) of the same binder?
Answer: 127 ± 7 nM
